Measured values as given in patent publication US20190127480A1 (Regeneron, published 2019).

Columns and labels:
[1] = molecular target: T1, cynomolgus monkey CD3 expressed on monkey T-cells (PBMCs) (cynomolgus monkey, UniProt Q95LI5 22-198; Q95LI8 22-171); assay: FACS titration on monkey PBMCs, gated on CD2+CD4+ T cells
T1 construct: whole, on cells; Native CD3 on monkey T cells; gamma and zeta chains are also part of CD3 on cells; also called monkey PBMCs; mfPBMC
Method: FACS data was acquired using the following protocol: Cells at 2×10⁵ per well were incubated with serially diluted antibodies for 30 min on ice. Post incubation, cells were washed and secondary antibodies were added and incubated for an additional 30 minutes. After incubation, cells were washed, re-suspended in cold PBS containing 1% BSA and analyzed by flow cytometry. CD4+ monkey T cells were gated by side and forward scatters, and on the CD2+CD4+CD20− population. The EC₅₀s for cell binding titration were calculated using a 4-parameter non-linear regression analysis in GraphPad Prism.

[2] = molecular target: T1, cynomolgus monkey CD3 expressed on …; assay: cell-based or functional assay
[3] = molecular target: human CD3 expressed on cells (Jurkat cells; human T-cells of PBMC) (human, UniProt P09693 23-182; P20963 22-164); assay: cell-based or functional assay
Sequence of human CD3 expressed on cells (Jurkat cells; human T-cells of PBMC) (chain, as listed by the source, chain 1 of 4): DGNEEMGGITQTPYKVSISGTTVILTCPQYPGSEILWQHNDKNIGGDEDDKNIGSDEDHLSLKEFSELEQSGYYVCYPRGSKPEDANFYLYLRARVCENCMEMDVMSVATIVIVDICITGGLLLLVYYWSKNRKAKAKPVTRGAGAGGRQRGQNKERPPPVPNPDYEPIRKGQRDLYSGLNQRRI
Sequence of human CD3 expressed on cells (Jurkat cells; human T-cells of PBMC) (chain, as listed by the source, chain 2 of 4): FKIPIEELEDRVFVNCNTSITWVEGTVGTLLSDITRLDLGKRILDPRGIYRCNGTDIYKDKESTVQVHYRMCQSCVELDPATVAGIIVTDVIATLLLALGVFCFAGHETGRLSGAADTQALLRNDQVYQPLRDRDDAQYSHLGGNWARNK
Sequence of human CD3 expressed on cells (Jurkat cells; human T-cells of PBMC) (P09693 23-182, chain 3 of 4): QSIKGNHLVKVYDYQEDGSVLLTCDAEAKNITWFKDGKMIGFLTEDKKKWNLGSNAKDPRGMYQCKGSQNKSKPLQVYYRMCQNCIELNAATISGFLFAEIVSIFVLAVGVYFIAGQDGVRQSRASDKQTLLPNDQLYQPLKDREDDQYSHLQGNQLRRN
Sequence of human CD3 expressed on cells (Jurkat cells; human T-cells of PBMC) (P20963 22-164, chain 4 of 4): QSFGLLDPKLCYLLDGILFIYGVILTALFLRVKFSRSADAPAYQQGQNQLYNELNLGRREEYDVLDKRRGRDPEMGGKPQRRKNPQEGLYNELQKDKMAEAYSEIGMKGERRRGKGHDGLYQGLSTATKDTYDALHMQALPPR

[4] = molecular target: T2, soluble heterodimeric hCD3ε/δ.mFc protein (human); assay: SPR MASS-1, 37 C, antigen-capture format
T2 construct: also called soluble human CD3; soluble heterodimeric CD3 protein
T2 chain 1: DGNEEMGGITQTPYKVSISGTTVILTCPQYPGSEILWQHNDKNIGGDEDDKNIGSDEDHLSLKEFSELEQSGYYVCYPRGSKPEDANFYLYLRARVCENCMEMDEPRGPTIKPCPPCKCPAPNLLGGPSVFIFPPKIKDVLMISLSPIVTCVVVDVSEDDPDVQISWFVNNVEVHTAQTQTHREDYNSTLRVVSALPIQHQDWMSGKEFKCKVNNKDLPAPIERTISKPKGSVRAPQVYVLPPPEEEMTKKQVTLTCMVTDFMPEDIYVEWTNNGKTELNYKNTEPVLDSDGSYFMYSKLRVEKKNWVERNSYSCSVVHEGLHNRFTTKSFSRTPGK
T2 chain 2: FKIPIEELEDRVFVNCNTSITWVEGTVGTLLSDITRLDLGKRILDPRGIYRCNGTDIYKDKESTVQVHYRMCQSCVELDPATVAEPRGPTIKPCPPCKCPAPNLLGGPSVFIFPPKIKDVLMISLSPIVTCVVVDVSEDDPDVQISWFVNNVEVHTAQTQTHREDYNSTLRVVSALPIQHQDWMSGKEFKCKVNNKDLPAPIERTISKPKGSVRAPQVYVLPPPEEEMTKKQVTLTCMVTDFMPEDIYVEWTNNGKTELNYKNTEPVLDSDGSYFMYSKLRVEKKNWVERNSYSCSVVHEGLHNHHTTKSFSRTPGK
Method: Measurements were conducted on a Sierra Sensors MASS-1 instrument.
In the antigen-capture format, the MASS-1 high-density amine sensor surface was derivatized with a goat anti-mouse IgG2a polyclonal antibody (Southern Biotech). Soluble heterodimeric CD3 protein was captured and the respective antibodies were injected over the captured antigen.
(§1) Kinetic association (kₐ) and dissociation (kd) rate constants were determined by processing and fitting the data to a 1:1 binding model using MASS-1 AnalyserR2 curve fitting software. Binding dissociation equilibrium constants (KD) and dissociative half-lives (t_{1/2}) were calculated from the kinetic rate constants as: KD (M)=kd/kₐ; and t_{1/2} (min)=(ln 2/(60*kd).

[5] = molecular target: T3, human PSMA on PSMA-expressing cells (human, UniProt Q04609 1-750); assay: FACS on B16F10.9/PSMA cells
T3 construct: Cell line is named under assay or readout in each row; also called B16F10.9/hPSMA; B16F10.9/PSMA
T3 sequence (Q04609 whole entry): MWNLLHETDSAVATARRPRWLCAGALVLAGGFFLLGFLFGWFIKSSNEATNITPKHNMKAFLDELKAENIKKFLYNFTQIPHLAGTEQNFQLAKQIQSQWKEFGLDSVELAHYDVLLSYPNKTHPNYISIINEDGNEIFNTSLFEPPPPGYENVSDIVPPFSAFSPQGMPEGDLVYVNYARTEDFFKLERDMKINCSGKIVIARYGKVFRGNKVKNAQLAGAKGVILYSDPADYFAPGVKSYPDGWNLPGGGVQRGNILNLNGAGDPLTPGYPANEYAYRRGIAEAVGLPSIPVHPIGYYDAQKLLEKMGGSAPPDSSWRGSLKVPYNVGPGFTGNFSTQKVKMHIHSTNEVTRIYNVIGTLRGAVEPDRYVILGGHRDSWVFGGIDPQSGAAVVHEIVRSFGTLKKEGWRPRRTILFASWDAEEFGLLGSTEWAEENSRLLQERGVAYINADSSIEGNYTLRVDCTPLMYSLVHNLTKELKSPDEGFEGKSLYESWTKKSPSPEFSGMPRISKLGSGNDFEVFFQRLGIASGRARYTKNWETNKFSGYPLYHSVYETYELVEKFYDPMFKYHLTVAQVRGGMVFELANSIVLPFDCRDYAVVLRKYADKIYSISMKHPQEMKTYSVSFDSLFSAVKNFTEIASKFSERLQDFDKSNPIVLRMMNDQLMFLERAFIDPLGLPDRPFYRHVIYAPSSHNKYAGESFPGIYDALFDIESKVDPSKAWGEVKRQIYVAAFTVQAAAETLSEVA
How it was run: (§2)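 Jurkat (human CD3), cynomolgus T or PSMA-expressing cells (2×10⁵/well) incubated 30 min at 4° C with serially diluted bispecific antibodies, then 30 min with PE anti-human Fcγ F(ab′)₂. Single-cell gated flow cytometry; EC₅₀ from 4-parameter non-linear regression.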

[6] = molecular target: T4, human CD3 on CD3-expressing cells (Jurkat, human T cells) (human, UniProt P07766 23-207; P04234 22-171); assay: FACS on Jurkat cells
T4 construct: On cells CD3 stands within the T cell receptor complex (also gamma and zeta chains); also called human CD3 expressing Jurkat cells
How it was run: as §2

[7] = molecular target: T3, human PSMA on PSMA-expressing cells; assay: cell-based or functional assay
[8] = molecular target: T4, human CD3 on CD3-expressing cells …; assay: cell-based or functional assay
[9] = molecular target: T5, human PSMA expressed with an N-terminal hexahistidine tag (6h.hPSMA, R&D) (human, UniProt Q04609 44-750); assay: SPR Biacore T-200, 37 C, antibody-capture (anti-mouse Fc), 6h.hPSMA as analyte
T5 construct: Bought soluble protein; also called soluble human PSMA; human PSMA protein
T5 sequence (Q04609 other isoform, or with tags, fused parts or gaps limits assumed): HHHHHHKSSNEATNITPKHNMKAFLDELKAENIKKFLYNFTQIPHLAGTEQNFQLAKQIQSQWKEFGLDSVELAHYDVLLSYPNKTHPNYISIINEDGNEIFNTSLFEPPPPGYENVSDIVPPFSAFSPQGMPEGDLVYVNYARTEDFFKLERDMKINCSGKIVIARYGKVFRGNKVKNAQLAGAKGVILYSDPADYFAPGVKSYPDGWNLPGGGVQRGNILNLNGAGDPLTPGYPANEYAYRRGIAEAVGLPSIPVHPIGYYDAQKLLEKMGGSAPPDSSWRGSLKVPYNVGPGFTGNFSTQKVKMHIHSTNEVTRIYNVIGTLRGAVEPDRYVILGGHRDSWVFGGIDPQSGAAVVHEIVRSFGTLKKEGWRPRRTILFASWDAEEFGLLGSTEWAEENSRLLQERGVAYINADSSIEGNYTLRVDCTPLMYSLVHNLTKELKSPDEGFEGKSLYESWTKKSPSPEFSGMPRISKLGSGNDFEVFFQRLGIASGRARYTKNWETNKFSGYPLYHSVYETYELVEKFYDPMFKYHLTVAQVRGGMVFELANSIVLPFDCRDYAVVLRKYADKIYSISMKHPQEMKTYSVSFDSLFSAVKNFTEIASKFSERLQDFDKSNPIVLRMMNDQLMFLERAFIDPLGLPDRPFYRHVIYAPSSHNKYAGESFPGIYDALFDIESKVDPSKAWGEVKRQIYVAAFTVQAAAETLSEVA
Method: Briefly, a CM5 Biacore™ sensor surface was derivatized via amine coupling with a monoclonal mouse anti-human Fc antibody (GE, # BR-1008-39) or monoclonal goat anti-mouse Fc antibody (GE, # BR-1008-38) to capture purified anti-PSMA antibodies. Binding studies were performed in HBSP++ buffer composed of 0.01M HEPES, 0.15M NaCl, 2 mM Ca²⁺, 2 mM Mg²⁺, 0.05% v/v Surfactant P20, pH7.4. Varying concentrations of human PSMA expressed with an N-terminal hexahistidine tag (6h.hPSMA, R&D) prepared in HBSP++ running buffer (ranging from 50 to 0.78 nM, 4-fold dilutions) were injected over the anti-PSMA antibody captured surface at a flow rate of 30 μL/minute. Antibody-reagent association was monitored for 2 minutes while dissociation in HBSP++ running buffer was monitored for 8 minutes.
as §1, with “by” for “by processing and”, “real-time sensorgrams” for “data”, “Scrubber 2.0c” for “MASS-1 AnalyserR2”, “(t½)” for “(t_{1/2})”

T1 sequence (Q95LI5 22-198, chain 1 of 2): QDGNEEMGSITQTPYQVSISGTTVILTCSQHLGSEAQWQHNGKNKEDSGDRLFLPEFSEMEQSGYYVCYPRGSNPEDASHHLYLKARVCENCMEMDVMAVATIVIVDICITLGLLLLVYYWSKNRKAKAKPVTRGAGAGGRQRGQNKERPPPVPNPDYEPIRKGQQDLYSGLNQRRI
T1 sequence (Q95LI8 22-171, chain 2 of 2): as the sequence (chain, as listed by the source, chain 2 of 4) above, with I5V, N15K, I20V, S32T, D33N, I34N, T64A, S74N, V83L, H141R counted along it

Row | Binder | EC50 [1] | binding result [4] | EC50 [5] | binding result [6] | further results
1 | H1H2712N (antibody, human IgG1, V domains shown, H1H: human IgG1 Fc) VH: EVQLVESGGGLVQPGGSLRLSCAATGFTFDDFTMHWVRQAPGKGLEWVSGISWNSGSIGYVDSVKGRFTISRDNAKNSLYLQMNSLRAEDTALYYCAKDNSGYGYYYYGMDVWGQGTTVTVSS VL: EIVMTQSPATLSVSPGERATLSCRASHSVSRNSAWYQQKPGQAPRLLIYGASTRATGIPARFSGSGSGTEFTLTISSLQSEDFAIYYCQQYNNWPLTFGGGTKVEIK | 2.29 nM | – | – | – | EC50 [M] mfPBMC Proliferation [2]: 2.72e-12 M
2 | H2M3547N (antibody, mouse IgG2, V domains shown, H2M: human variable regions, mouse IgG2 Fc) VH: EAQLVESGGGLVQPGRSLRLSCTTSGFTFDDYTMHWVRQAPGKGLEWISDISWNGGTKGYADSVKGRFTISRDNAKNSLYLQMDSLRGEDTALYYCVKDKSGYGHFYFGLDVWGQGTTVTVSS VL: DIQMTQSPSSLTASVGDRVTFTCRASQSISRHLSWYQQKPGKAPKLLIYAASSLESGVPSRFSGSGSGTDFTLTISSLHPEDFATYYCQQSYSNPPITFGQGTRLEIK | 0.112 nM | – | – | – | U937 Cytotoxicity Human T-cells [3]: 31.7 pM
3 | BSPSMA/CD3-004 (bispecific antibody, IgG4, V domains shown, modified (chimeric) IgG4 Fc domain; also called PSMA-VH-11810 x CD3-VH-G5) VH 1: QVQLVESGGGVVQPGRSLRLSCAASGFTFSSYGMHWVRQAPGKGLEWVAVISYAGNNKYYADSVKGRFTVSRDNSKKTLYLQMNSLRSEDTAVYYCAKDSYYDFLTDPDVLDIWGQGTMVTVSS VH 2: EVQLVESGGGLVQPGRSLRLSCAASGFTFDDYSMHWVRQAPGKGLEWVSGISWNSGSIGYADSVKGRFTISRDNAKNSLYLQMNSLRAEDTALYYCAKDGSGYGKFYYYGMDVWGQGTTVTVSS VL: DIQMTQSPSSLSASVGDSVTITCRASQSINNYLNWYQQKPGKAPKLLIYTASSLLSGVPSRFSGSGSGTDFTLTISGLHPEDFATYFCQQSFSTPPITFGQGTRLDIK | – | no binding | 1.31 nM | – | EC50 [6]: ~1000 nM; 22RV1 Cell depletion EC50 [7]: 6.31 pM; C4-2 Cell depletion EC50 [7]: 21.5 pM; TrampC2.PSMA Cell depletion EC50 [7]: 11.5 pM; T cell activation EC50 [8]: 13.4 pM
4 | H1M11900N (antibody, mouse IgG1, V domains shown, human variable / mouse constant region (H1M: mouse IgG1 Fc)) VH: EVQLVESGGALVQTGGSLRLSCVASGFTFSNYWMSWVRQSPGKGLQWVASIKKDGSDEDYVDSVKGRFTISRDNAENSLYLQMTSLRIEDTAVYYCARFISAVGVDWGQGALVTVSS VL: DIQMTQSPSSLSASVGDSVTITCRASQSINNYLNWYQQKPGKAPKLLIYTASSLLSGVPSRFSGSGSGTDFTLTISGLHPEDFATYFCQQSFSTPPITFGQGTRLDIK | – | – | – | – | Kd [9]: 25.8 nM; koff [9]: 0.00406 s⁻¹; kon [9]: 157000 M⁻¹ s⁻¹; t1/2 [9]: 2.8 min
5 | H2M3563N (antibody, mouse IgG2, V domains shown, H2M: human variable regions, mouse IgG2 Fc) VH: EVHLVESGGGLVQPGRSLRLSCAASGFTFDDYTMHWVRQAPGKGLEWVSDISWNSGSIGYADSVKGRFTVSRDNAKNSLYLQMNSLRGEDTALYYCAKDMSGYGHYGKYGMDVWGQGTTVTVSS VL: DIQMTQSPSSLSASVGDRVTITCRASQSIRSYLNWYQQKPGKVPKLLIYAASSLQSGVPSRFSGSGSGTDFTLTINSLQPDDFATYYCQQTYSNPPITFGQGTRLEIK | 0.165 nM | – | – | – | U937 Cytotoxicity Human T-cells [3]: 40.5 pM
6 | BSPSMA/CD3-300 (bispecific antibody, IgG4, V domains shown, modified (chimeric) IgG4 Fc domain; also called PSMA-VH-11810 x CD3-VH-G3) VH 1: QVQLVESGGGVVQPGRSLRLSCAASGFTFSSYGMHWVRQAPGKGLEWVAVISYAGNNKYYADSVKGRFTVSRDNSKKTLYLQMNSLRSEDTAVYYCAKDSYYDFLTDPDVLDIWGQGTMVTVSS VH 2: EVQLVESGGGLVQPGRSLRLSCAASGFTFDDYSMHWVRQAPGKGLEWVSGISWNSGSIGYADSVKGRFTISRDNAKNSLYLQMNSLRAEDTALYYCAKDGSGYGYFYYYGMDVWGQGTTVTVSS VL: DIQMTQSPSSLSASVGDSVTITCRASQSINNYLNWYQQKPGKAPKLLIYTASSLLSGVPSRFSGSGSGTDFTLTISGLHPEDFATYFCQQSFSTPPITFGQGTRLDIK | – | no binding | 1.9 nM | no binding | T cell activation EC50 [8]: 18.5 pM
7 | BSPSMA/CD3-400 (bispecific antibody, IgG4, V domains shown, modified (chimeric) IgG4 Fc domain; also called PSMA-VH-11810 x CD3-VH-G4) VH 1: QVQLVESGGGVVQPGRSLRLSCAASGFTFSSYGMHWVRQAPGKGLEWVAVISYAGNNKYYADSVKGRFTVSRDNSKKTLYLQMNSLRSEDTAVYYCAKDSYYDFLTDPDVLDIWGQGTMVTVSS VH 2: EVQLVESGGGLVQPGRSLRLSCAASGFTFDDYAMHWVRQAPGKGLEWVSGISWNSGSIGYADSVKGRFTISRDNAKNSLYLQMNSLRAEDTALYYCAKDGSGYGKFYYYGMDVWGQGTTVTVSS VL: DIQMTQSPSSLSASVGDSVTITCRASQSINNYLNWYQQKPGKAPKLLIYTASSLLSGVPSRFSGSGSGTDFTLTISGLHPEDFATYFCQQSFSTPPITFGQGTRLDIK | – | no binding | 1.72 nM | no binding | –
8 | BSPSMA/CD3-1800 (bispecific antibody, IgG4, V domains shown, modified (chimeric) IgG4 Fc domain; also called PSMA-VH-11810 x CD3-VH-G18) VH 1: QVQLVESGGGVVQPGRSLRLSCAASGFTFSSYGMHWVRQAPGKGLEWVAVISYAGNNKYYADSVKGRFTVSRDNSKKTLYLQMNSLRSEDTAVYYCAKDSYYDFLTDPDVLDIWGQGTMVTVSS VH 2: EVQLVESGGGLVQPGRSLRLSCAASGFTFDDYSMHWVRQAPGKGLEWVSGISWNSGSIGYADSVKGRFTISRDNAKNSLYLQMNSLRAEDTALYYCAKDGSGYGKFYYYGLDVWGQGTTVTVSS VL: DIQMTQSPSSLSASVGDSVTITCRASQSINNYLNWYQQKPGKAPKLLIYTASSLLSGVPSRFSGSGSGTDFTLTISGLHPEDFATYFCQQSFSTPPITFGQGTRLDIK | – | no binding | 2.16 nM | – | EC50 [6]: 126 nM
9 | BSPSMA/CD3-200 (bispecific antibody, IgG4, V domains shown, modified (chimeric) IgG4 Fc domain; also called PSMA-VH-11810 x CD3-VH-G2) VH 1: QVQLVESGGGVVQPGRSLRLSCAASGFTFSSYGMHWVRQAPGKGLEWVAVISYAGNNKYYADSVKGRFTVSRDNSKKTLYLQMNSLRSEDTAVYYCAKDSYYDFLTDPDVLDIWGQGTMVTVSS VH 2: EVQLVESGGGLVQPGRSLRLSCAASGFTFDDYAMHWVRQAPGKGLEWVSGISWNSGSIGYADSVKGRFTISRDNAKNSLYLQMNSLRAEDTALYYCAKDGSGYGYFYYYGMDVWGQGTTVTVSS VL: DIQMTQSPSSLSASVGDSVTITCRASQSINNYLNWYQQKPGKAPKLLIYTASSLLSGVPSRFSGSGSGTDFTLTISGLHPEDFATYFCQQSFSTPPITFGQGTRLDIK | – | no binding | 1.88 nM | no binding | –
